Source: US20210388087A1 (Chugai, published 2021)
Numbering of substitutions follows the chain as printed. In names and notes the source's numbering stands.

B1: CE115HA000 N54S one-arm antibody (antibody, human IgG1, kappa, L234A L235A, N297A, name in Kabat numbering)
heavy: QVQLVESGGGVVQPGRSLRLSCAASGFTFSNAWMHWVRQAPGKGLEWVAQIKAKSNSYATYYAESVKGRFTISRDDSKNSLYLQMNSLKTEDTAVYYCRYVHYGAYYGVDAWGQGTTVTVSSASTKGPSVFPLAPSSKSTSGGTAALGCLVKDYFPEPVTVSWNSGALTSGVHTFPAVLQSSGLYSLSSVVTVPSSSLGTQTYICNVNHKPSNTKVDKKVEPKSCDKTHTCPPCPAPEAAGGPSVFLFPPKPKDTLMISRTPEVTCVVVDVSHEDPEVKFNWYVDGVEVHNAKTKPREEQYASTYRVVSVLTVLHQDWLNGKEYKCKVSNKALPAPIEKTISKAKGQPREPQVYTLPPSRCELTKNQVSLSCAVKGFYPSDIAVEWESNGQPENNYKTTPPVLDSDGSFFLVSKLTVDKSRWQQGNVFSCSVMHEALHNHYTQKSLSLSPDYKDDDDK
chain: EPKSSDKTHTCPPCPAPELLGGPSVFLFPPKPKDTLMISRTPEVTCVVVDVSHEDPEVKFNWYVDGVEVHNAKTKPREEQYNSTYRVVSVLTVLHQDWLNGKEYKCKVSNKALPAPIEKTISKAKGQPREPQVCTLPPSRDELTKNQVSLWCLVKGFYPSDIAVEWESNGQPENNYKTTPPVLDSDGSFFLYSKLTVDKSRWQQGNVFSCSVMHEALHNRYTQKSLSLSP
light: DIVMTQSPLSLPVTPGEPASISCRSSQSLVHSNRNTYLHWYQQKPGQAPRLLIYKVSNRFSGVPDRFSGSGSGTDFTLKISRVEAEDVGVYYCGQGTQVPYTFGQGTKLEIKRTVAAPSVFIFPPSDEQLKSGTASVVCLLNNFYPREAKVQWKVDNALQSGNSQESVTEQDSKDSTYSLSSTLTLSKADYEKHKVYACEVTHQGLSSPVTKSFNRGEC
B2: CE115HA000 Q50E one-arm antibody (antibody, human IgG1, kappa, L234A L235A, N297A, name in Kabat numbering)
heavy: B1 heavy with Q50E, S57N
chain: B1 chain
light: B1 light
B3: CE115HA000 N82aD one-arm antibody (antibody, human IgG1, kappa, L234A L235A, N297A, name in Kabat numbering)
heavy: B1 heavy with S57N, N86D
chain: B1 chain
light: B1 light
B4: CE115HA000 S62D one-arm antibody (antibody, human IgG1, kappa, L234A L235A, N297A, name in Kabat numbering)
heavy: B1 heavy with S57N, S65D
chain: B1 chain
light: B1 light
B5: CE115HA000 S52cY one-arm antibody (antibody, human IgG1, kappa, L234A L235A, N297A, name in Kabat numbering)
heavy: B1 heavy with S55Y, S57N
chain: B1 chain
light: B1 light
B6: CE115HA000 S52cL one-arm antibody (antibody, human IgG1, kappa, L234A L235A, N297A, name in Kabat numbering)
heavy: B1 heavy with S55L, S57N
chain: B1 chain
light: B1 light
B7: CE115HA000 Q50A one-arm antibody (antibody, human IgG1, kappa, L234A L235A, N297A, name in Kabat numbering)
heavy: B1 heavy with Q50A, S57N
chain: B1 chain
light: B1 light
B8: CE115HA000 N76S one-arm antibody (antibody, human IgG1, kappa, L234A L235A, N297A, name in Kabat numbering)
heavy: B1 heavy with S57N, N79S
chain: B1 chain
light: B1 light
B9: CE115HA000 S52cD one-arm antibody (antibody, human IgG1, kappa, L234A L235A, N297A, name in Kabat numbering)
heavy: B1 heavy with S55D, S57N
chain: B1 chain
light: B1 light
B10: CE115HA000 S62P one-arm antibody (antibody, human IgG1, kappa, L234A L235A, N297A, name in Kabat numbering)
heavy: B1 heavy with S57N, S65P
chain: B1 chain
light: B1 light
B11: CE115HA000 S52cF one-arm antibody (antibody, human IgG1, kappa, L234A L235A, N297A, name in Kabat numbering)
heavy: B1 heavy with S55F, S57N
chain: B1 chain
light: B1 light
B12: CE115HA000 R16Q one-arm antibody (antibody, human IgG1, kappa, L234A L235A, N297A, name in Kabat numbering)
heavy: B1 heavy with R16Q, S57N
chain: B1 chain
light: B1 light
B13: CE115HA000 S52cA one-arm antibody (antibody, human IgG1, kappa, L234A L235A, N297A, name in Kabat numbering)
heavy: B1 heavy with S55A, S57N
chain: B1 chain
light: B1 light
B14: CE115HA000 Q50L one-arm antibody (antibody, human IgG1, kappa, L234A L235A, N297A, name in Kabat numbering)
heavy: B1 heavy with Q50L, S57N
chain: B1 chain
light: B1 light
B15: CE115HA000 S52cG one-arm antibody (antibody, human IgG1, kappa, L234A L235A, N297A, name in Kabat numbering)
heavy: B1 heavy with S55G, S57N
chain: B1 chain
light: B1 light
B16: CE115HA000 Q50D one-arm antibody (antibody, human IgG1, kappa, L234A L235A, N297A, name in Kabat numbering)
heavy: B1 heavy with Q50D, S57N
chain: B1 chain
light: B1 light
B17: CE115HA000 Q105E one-arm antibody (antibody, human IgG1, kappa, L234A L235A, N297A, name in Kabat numbering)
heavy: B1 heavy with S57N, Q114E
chain: B1 chain
light: B1 light
B18: CE115HA000 Q50K one-arm antibody (antibody, human IgG1, kappa, L234A L235A, N297A, name in Kabat numbering)
heavy: B1 heavy with Q50K, S57N
chain: B1 chain
light: B1 light
B19: CE115HA000 S30D one-arm antibody (antibody, human IgG1, kappa, L234A L235A, N297A, name in Kabat numbering)
heavy: B1 heavy with S30D, S57N
chain: B1 chain
light: B1 light
B20: CE115HA000 S62E one-arm antibody (antibody, human IgG1, kappa, L234A L235A, N297A, name in Kabat numbering)
heavy: B1 heavy with S57N, S65E
chain: B1 chain
light: B1 light
B21: CE115HA000 S52cQ one-arm antibody (antibody, human IgG1, kappa, L234A L235A, N297A, name in Kabat numbering)
heavy: B1 heavy with S55Q, S57N
chain: B1 chain
light: B1 light
B22: CE115HA000 N54Y one-arm antibody (antibody, human IgG1, kappa, L234A L235A, N297A, name in Kabat numbering)
heavy: B1 heavy with S57Y
chain: B1 chain
light: B1 light
B23: CE115HA000 S30G one-arm antibody (antibody, human IgG1, kappa, L234A L235A, N297A, name in Kabat numbering)
heavy: B1 heavy with S30G, S57N
chain: B1 chain
light: B1 light
B24: CE115HA000 Q50S one-arm antibody (antibody, human IgG1, kappa, L234A L235A, N297A, name in Kabat numbering)
heavy: B1 heavy with Q50S, S57N
chain: B1 chain
light: B1 light
B25: CE115HA000 S52cV one-arm antibody (antibody, human IgG1, kappa, L234A L235A, N297A, name in Kabat numbering)
heavy: B1 heavy with S55V, S57N
chain: B1 chain
light: B1 light
B26: CE115HA000 S62K one-arm antibody (antibody, human IgG1, kappa, L234A L235A, N297A, name in Kabat numbering)
heavy: B1 heavy with S57N, S65K
chain: B1 chain
light: B1 light
B27: CE115HA000 Q50Y one-arm antibody (antibody, human IgG1, kappa, L234A L235A, N297A, name in Kabat numbering)
heavy: B1 heavy with Q50Y, S57N
chain: B1 chain
light: B1 light
B28: CE115HA000 Q50I one-arm antibody (antibody, human IgG1, kappa, L234A L235A, N297A, name in Kabat numbering)
heavy: B1 heavy with Q50I, S57N
chain: B1 chain
light: B1 light
B29: CE115HA000 S52cK one-arm antibody (antibody, human IgG1, kappa, L234A L235A, N297A, name in Kabat numbering)
heavy: B1 heavy with S55K, S57N
chain: B1 chain
light: B1 light
B30: CE115HA000 R19T one-arm antibody (antibody, human IgG1, kappa, L234A L235A, N297A, name in Kabat numbering)
heavy: B1 heavy with R19T, S57N
chain: B1 chain
light: B1 light
B31: CE115HA000 R16E one-arm antibody (antibody, human IgG1, kappa, L234A L235A, N297A, name in Kabat numbering)
heavy: B1 heavy with R16E, S57N
chain: B1 chain
light: B1 light

These binders were tested against T1, CD3 epsilon homodimer protein (UniProt P07766 23-126) (assay: SPR (Biacore T200), CD3 epsilon homodimer on CM4 chip, one-arm antibody as analyte, 25 C;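 note: homodimer attached to the sensor surface via amine coupling, HBS-EP+ used as running buffer during binding runs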).
T1 construct: immobilized on Sensor chip CM4 by amine coupling; also called CD3 (CD3 epsilon)
T1 sequence (P07766 23-126): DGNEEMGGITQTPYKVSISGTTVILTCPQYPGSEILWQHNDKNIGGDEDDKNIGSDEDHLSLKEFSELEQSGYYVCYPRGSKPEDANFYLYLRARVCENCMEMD

| Binder | ratio of amounts bound (altered form / CE115HA000) |
| --- | --- |
| B1 | 0.84 |
| B2 | 0.26 |
| B3 | 0.73 |
| B4 | 0.92 |
| B5 | 1.11 |
| B6 | 0.98 |
| B7 | 0.24 |
| B8 | 0.92 |
| B9 | 0.6 |
| B10 | 1 |
| B11 | 1.13 |
| B12 | 0.9 |
| B13 | 0.96 |
| B14 | 0.23 |
| B15 | 0.97 |
| B16 | 0.27 |

| Binder | ratio of amounts bound (altered form / CE115HA000) |
| --- | --- |
| B17 | 0.94 |
| B18 | 0.33 |
| B19 | 0.86 |
| B20 | 0.92 |
| B21 | 1.04 |
| B22 | 1.09 |
| B23 | 1.01 |
| B24 | 0.24 |
| B25 | 0.93 |
| B26 | 1.19 |
| B27 | 0.25 |
| B28 | 0.4 |
| B29 | 1.19 |
| B30 | 0.8 |
| B31 | 0.88 |
